{"source": "patent US10253087B2", "about": "“CCR2 antagonist peptides” (UNIVERSITE PIERRE ET MARIE CURIE (Paris 6), priority 2011, dated 2019)", "key": {"[1]": {"system": "HEK-CCR2", "experiment": "Cytotoxicity on HEK-CCR2", "conditions": "4 hours of incubation at 37° C., 5% CO2, various concentrations"}, "[2]": {"molecular_target": "T1, CCR2 (Homo sapiens, UniProt P41597)", "T1 construct": "expressed in transfected cells", "T1 sequence (P41597 whole entry)": "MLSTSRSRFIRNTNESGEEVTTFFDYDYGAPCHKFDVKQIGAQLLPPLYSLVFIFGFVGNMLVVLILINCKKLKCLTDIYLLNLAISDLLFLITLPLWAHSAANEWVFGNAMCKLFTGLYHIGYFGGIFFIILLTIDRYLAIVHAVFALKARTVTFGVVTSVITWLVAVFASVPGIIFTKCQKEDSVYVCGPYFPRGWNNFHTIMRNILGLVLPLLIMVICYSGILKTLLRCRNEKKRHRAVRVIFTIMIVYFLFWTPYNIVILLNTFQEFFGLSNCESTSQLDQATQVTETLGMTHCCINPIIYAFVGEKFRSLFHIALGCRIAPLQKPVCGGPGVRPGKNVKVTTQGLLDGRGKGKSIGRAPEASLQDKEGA", "experiment": "Calcium flux assay, CCL2-induced calcium release on HEK-CCR2", "format": "cell-based", "protocol": "Cytosolic-free calcium assay was measured by fluorescent detection with the HitHunter™ Calcium No WashPLUS (Ca NWPLUS) assay kit (DiscoveRex, #90-0091). Briefly, HEK or CHO expressing the chemokine receptor of interest (5.104) were plated overnight at 37° C., 5% CO2 before pre-loading with a calcium sensitive dye (Ca NWPLUS working reagent) supplemented with probenecid (Sigma-Aldrich, #P8761) to avoid calcium dye leakage from the cells, for 1 h at 37° C. Cells were then treated with control buffer or peptides at various concentrations and appropriate agonist. Signal was measured as function of time on a fluorescent plate reader equipped with fluidic handling (FlexStation 3, Molecular Devices). Maximum change in fluorescence over baseline (peak signal) was used to determine agonist response, as quantified using SoftMax Pro software. All experiments were run in triplicate, and results are representative of at least three independent experiments."}, "[3]": {"molecular_target": "T1, CCR2", "experiment": "β-arrestin recruitment assay (PathHunter), CCL2-induced", "format": "cell-based", "conditions": "HEK-CCR2", "protocol": "Recruitment of β-arrestin in live cells was measured by chemoluminescence detection with the PathHunter™ eXpress β-Arrestin assay kit (DiscoveRex, #93-00446E1). Briefly, 100 μL PathHunter eXpress cells were expressing CCR2 were plated on a 96-well tissue culture treated plate for 48 hours at 37° C., 5% CO2. Cells were first incubated with ECL1 (C) inverso or control peptide and before adding 10 μL of the agonist, CCL2 diluted in OCC medium to achieve the EC80 determined beforehand or with OCC medium alone, for respectively 60 and 90 min at 37° C., 5% CO2. The reaction was stopped by adding 55 μL of the Working Detection Reagent Solution (PathHunter detection reagent) for 90 min at Room temperature. Chemoluminescent signal was read on a luminescent plate reader (TriStar LB 941, Berthold Technologies, Thoiry, France). Assays were run in triplicates."}, "[4]": {"molecular_target": "T1, CCR2", "experiment": "CCL2-Alexa 647 binding assay on HEK-CCR2", "conditions": "competition binding", "protocol": "Binding was performed with the same cells. 200.000 cells were pre-incubated for 30 minutes at 4° C. in 100 μl buffer (PBS containing 0.5% BSA, 0.2% EDTA and NaN3 0.01%) with recombinant human CCL2 (50 nM, 100 nM and 500 nM), ECL1 (C) inverso (11.3 μM, 28.2 μM and 56.3 μM) or with buffer. After, 50 nM CCL2-alexa 647 (Almac) were add for 30 minutes at 4° C. and washed three times with 1 ml of cold buffer. Cells were incubated with 10 μl anti-human-CCR2 (BD pharmingen) for 30 minutes at 4° C. in the dark and washed three times with 1 ml of cold buffer. Cells and beads were counted on FACSCalibur flow cytometer and data were analysed with FlowJo software."}, "[5]": {"molecular_target": "T1, CCR2", "experiment": "Radioligand binding assay, I125-CCL2 on HEK-CCR2", "conditions": "competition binding", "protocol": "Binding assay was carried out using I125-CCL2 (specific activity 2200 Ci/mmol; Perkin elmer, inc.). 300.000 HEK cells stably expressing CCR2 and native cells were incubated with I125-CCL2 in the presence or absence of recombinant human CCL2 (10 nM or 100 nM) or ECL1 (C) inverso (1-10-30 μM) in 200 μl buffer (PBS containing 0.5% BSA and 0.01% HEPES). After 1 h incubation at 37° C., cells were washed three times with 1 ml of cold washing solution. Gamma emissions were then counted in the cell pellet with gamma counter. Non-specific binding represented less than 15% of total binding and was subtracted from total binding to define specific I125-CCL2 binding."}, "[6]": {"molecular_target": "T1, CCR2", "experiment": "Migration assay, HEK-CCR2 induced by CCL2", "format": "cell-based", "conditions": "up to 500 μM", "protocol": "(§1) Migration assays were performed in 24-transwell inserts (Corning Costar Avon, France) with 8 μm polycarbonate filter for HEK or CHO cells and 5 μm for MBMC. […] The bottom of each well was filled with 600 μL pre-warmed chemotaxis buffer at indicated chemokine concentration. The plates were then incubated for 4 hours at 37° C. in a 5% CO2 atmosphere. […] Before counting the cells by flow cytometry, mouse leukocytes were immunophenotyped with a mix of fluorescent antibodies (anti-mouse Ly6G-PE, anti-mouse NK1.1-PE, anti-mouse […], anti-mouse 7/4-FITC, BD Biosciences) and HEK expressing chemokine receptors with appropriate fluorescent anti-human chemokine receptor. Data were analysed with FlowJo software and results are expressed as a number of cells migrating in the presence or in the absence of chemoattractant. Experiments were run in triplicate, and results are representative of at least three independent experiments."}, "[7]": {"molecular_target": "T2, CCR5 (Homo sapiens, UniProt P51681)", "T2 construct": "expressed in transfected cells", "T2 sequence (P51681 whole entry)": "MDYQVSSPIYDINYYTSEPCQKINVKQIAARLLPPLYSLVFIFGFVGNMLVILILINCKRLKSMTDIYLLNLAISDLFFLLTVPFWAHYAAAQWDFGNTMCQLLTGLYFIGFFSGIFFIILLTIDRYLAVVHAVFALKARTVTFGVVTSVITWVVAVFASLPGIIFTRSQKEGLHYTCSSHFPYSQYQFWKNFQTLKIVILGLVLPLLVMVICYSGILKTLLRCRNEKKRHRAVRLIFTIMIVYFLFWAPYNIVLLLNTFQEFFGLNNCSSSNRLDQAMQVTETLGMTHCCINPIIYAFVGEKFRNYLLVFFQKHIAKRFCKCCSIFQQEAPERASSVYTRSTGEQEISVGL", "experiment": "Migration assay, HEK-CCR5 induced by CCL5", "format": "cell-based", "conditions": "up to 500 μM", "protocol": "as §1"}, "[8]": {"molecular_target": "T3, CX3CR1 (Homo sapiens, UniProt P49238)", "T3 construct": "expressed in transfected cells", "T3 sequence (P49238 1-355)": "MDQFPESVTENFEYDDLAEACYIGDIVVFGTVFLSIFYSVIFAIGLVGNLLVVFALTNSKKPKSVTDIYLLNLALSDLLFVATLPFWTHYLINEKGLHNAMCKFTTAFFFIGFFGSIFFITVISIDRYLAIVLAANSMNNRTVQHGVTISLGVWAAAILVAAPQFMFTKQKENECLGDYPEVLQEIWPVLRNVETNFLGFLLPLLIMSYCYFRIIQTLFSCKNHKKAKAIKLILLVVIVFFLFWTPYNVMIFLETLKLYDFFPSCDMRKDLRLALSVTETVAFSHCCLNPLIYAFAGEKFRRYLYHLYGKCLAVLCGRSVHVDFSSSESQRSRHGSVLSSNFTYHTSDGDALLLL", "experiment": "Migration assay, HEK-CX3CR1 induced by CX3CL1", "format": "cell-based", "conditions": "up to 500 μM", "protocol": "as §1"}, "[9]": {"system": "mouse monocytes", "experiment": "Migration assay, mouse monocytes / leukocytes (MBMC)", "format": "cell-based", "conditions": "up to 500 μM", "protocol": "as §1"}, "[10]": {"system": "HEK-CCR2"}, "[11]": {"system": "MBCM", "method": "Mouse bone marrow cells (MBMC) were obtained from C57BL/6 mice.\nCells were immunophenotyped by adding a mix of fluorescent antibodies (anti LY-6G-PE, anti CD11b-PerCP, anti 7/4-FITC, anti F4/80-APC, anti NK-PE) and counted by FACSCalibur flow cytometry with predetermined number of beads (Polybead, carboxylate microsphere Polyscience, Inc) added to the samples. Data were analyzed with FlowJo."}}, "note": "“Also recorded” adds a separate entry of the source. Where two headings read alike, the source gives them in different places. Non-standard residues stand in square brackets, D forms with d. Residues, ends and D or L forms follow the SMILES beside them.", "data": [{"compound": "CC(C)C[C@@H](N)C(=O)NCC(=O)N[C@@H](C(=O)N[C@H](Cc1ccccc1)C(=O)N[C@H](CC(C)C)C(=O)N[C@H](CCCCN)C(=O)N[C@H](CS)C(=O)O)[C@H](C)O", "note": "[ECL1 (C) inverso, LGTFLKC] (H-[dL]G[dT][dF][dL][dK][dC]-OH; N-terminus and C-terminus assumed)", "values": [{"measurement": "cytotoxicity on HEK-CCR2", "setting": "[1]", "value": "No cytotoxicity effect"}]}, {"compound": "CCL2: chemokine, natural agonist of CCR2", "values": [{"measurement": "EC80 of CCL2 for calcium release", "setting": "[2]", "value": 50, "unit": "nM"}, {"measurement": "EC80 of CCL2 for β-arrestin recruitment", "setting": "[3]", "value": 12.5, "unit": "nM"}, {"measurement": "displacement of the binding of CCL2-Alexa-647 with HEK-CCR2", "setting": "[4]", "value": "could displace dose-dependently; also recorded: displaces dose-dependently"}, {"measurement": "displacement of bound [125I]-CCL2 on HEK-CCR2", "setting": "[5]", "value": "could displace dose-dependently"}]}, {"compound": "CKLFTGL [ECL1 (C)]", "values": [{"measurement": "induction of chemotaxis by the peptide itself, HEK-CCR2", "setting": "[6]", "value": "did not induced chemotaxis"}, {"measurement": "induction of chemotaxis by the peptide itself, HEK-CCR5", "setting": "[7]", "value": "did not induced chemotaxis"}, {"measurement": "induction of chemotaxis by the peptide itself, HEK-CX3CR1", "setting": "[8]", "value": "did not induced chemotaxis"}, {"measurement": "induction of chemotaxis by the peptide itself, mouse leukocytes", "setting": "[9]", "value": "did not induced chemotaxis"}, {"measurement": "cytotoxicity on HEK-CCR2", "setting": "[10]", "value": "no significant cell death"}, {"measurement": "cytotoxicity on MBCM", "setting": "[11]", "value": "no significant cell death"}]}]}
